Measurements from paper PMC4475061.

Key:
[1] = molecular target: T1, ULK3 fused to the VP16 activation domain, Q6PHR2; test: yeast two-hybrid (β-galactosidase activity); details: chain shown with the change;; parent: est. 0.66; read off a plot
T1 chain: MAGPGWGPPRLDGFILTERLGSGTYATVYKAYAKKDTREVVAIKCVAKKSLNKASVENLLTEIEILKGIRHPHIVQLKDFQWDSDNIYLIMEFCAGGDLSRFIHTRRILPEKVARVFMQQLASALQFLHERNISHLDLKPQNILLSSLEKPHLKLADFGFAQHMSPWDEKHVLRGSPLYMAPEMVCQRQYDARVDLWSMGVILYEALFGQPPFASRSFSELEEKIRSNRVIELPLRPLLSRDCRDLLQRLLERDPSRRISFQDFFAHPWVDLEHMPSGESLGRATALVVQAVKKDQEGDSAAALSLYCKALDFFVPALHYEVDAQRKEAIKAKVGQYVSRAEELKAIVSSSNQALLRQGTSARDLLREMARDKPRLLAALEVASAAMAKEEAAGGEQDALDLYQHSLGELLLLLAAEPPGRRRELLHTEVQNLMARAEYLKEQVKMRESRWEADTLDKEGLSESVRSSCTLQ

other ESCRT-III proteins = test: fluorescence polarisation; data not shown; other ESCRT-III proteins

Row | Binder | response [1] | Kd (other ESCRT-III proteins) [µM]
1 | CHMP1B WT fused to the Gal4 DNA-binding domain, Q7LBR1 T178R; A181R; E184R (protein) MSNMEKHLFNLKFAAKELSRSAKKCDKEEKAEKAKIKKAIQKGNMEVARIHAENAIRQKNQAVNFLRMSARVDAVAARVQTAVTMGKVTKSMAGVVKSMDATLKTMNLEKISALMDKFEHQFETLDVQTQQMEDTMSSTTTLTTPQNQVDMLLQEMADEAGLDLNMELPQGQTGSVGRSVRSARQDELSQRLARLRDQV | 0.5 | –
2 | ULK3(MIT)2 (residues 277–449) (domain or fragment) GPHMSGESLGRATALVVQAVKKDQEGDSAAALSLYCKALDFFVPALHYEVDAQRKEAIKAKVGQYVSRAEELKAIVSSSNQALLRQGTSARDLLREMARDKPRLLAALEVASAAMAKEEAAGGEQDALDLYQHSLGELLLLLAAEPPGRRRELLHTEVQNLMARAEYLKEQVKMRES | – | 100
